According to paper PMC3578862, “Single Residue Mutation in Active Site of Serine Acetyltransferase Isoform 3 from Entamoeba histolytica Assists in Partial Regaining of Feedback Inhibition by Cysteine” (PLoS ONE, 2013):

What was measured:
[1] = molecular target: T1, Serine acetyltransferase isoform 1 (EhSAT1) (Entamoeba histolytica, UniProt Q9U8X2); experiment: SAT activity assay, acetyl-CoA thioester cleavage at […] nm, […] serine; format: biochemical
T1 construct: gene EhSAT
T1 sequence (Q9U8X2 1-305): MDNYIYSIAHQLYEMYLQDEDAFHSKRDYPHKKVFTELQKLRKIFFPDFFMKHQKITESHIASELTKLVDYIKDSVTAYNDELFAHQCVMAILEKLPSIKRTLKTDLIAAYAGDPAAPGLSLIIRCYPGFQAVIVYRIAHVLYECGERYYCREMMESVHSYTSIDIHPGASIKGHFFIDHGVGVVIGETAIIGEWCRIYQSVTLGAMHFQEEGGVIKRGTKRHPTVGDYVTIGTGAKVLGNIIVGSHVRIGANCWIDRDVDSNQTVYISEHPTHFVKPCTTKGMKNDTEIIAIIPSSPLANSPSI

[2] = substrate: N[C@@H](CO)C(=O)O; experiment: purified protein; format: biochemical, Entamoeba histolytica; conditions: acetyl coenzyme A active site

Question: N[C@@H](CS)C(=O)O [L-cysteine] was tested. Which IC50 [1] did it give?
Answer: 9.59 µM

B1: Serine acetyltransferase isoform 3 (EhSAT3) (Entamoeba histolytica) (protein)
chain: MSSLLQQTSQLLVQSYQSDNIAFKSTKQFPEKKSFLELELIQKILFPDFFTRRDKRTFNNVLERLSLLVYHIQNSIEAYYNQQLAEKCITALLSQFVTIRELVKQDIIAAYTGDPAASSLAMIIRSYPGIHVMMIQRVAHILYMNGDIEYSRELMENIHSVTGIDIHPGTSIGNHFFIDHGVGVVIGETAVIGNWCRVYQSVTLGAMSFKEDNGIVIKGNKRHPTIGDFVVIGAGAKVLGNITIGSNVKIGANCWITQNIDQDQIVFISEHPSQITKSSTKQSSKDDKIILQSLTENKISEEQENLSWVNSPELLCTYTSEESTPINLDCFVSCQQ
Question: How did the Km [2] turn out when B1 was run?
Answer: 52.0 µM

B2: Serine acetyltransferase isoform 1 (EhSAT1) (Entamoeba histolytica) (protein)
chain: MDNYIYSIAHQLYEMYLQDEDAFHSKRDYPHKKVFTELQKLRKIFFPDFFMKHQKITESHIASELTKLVDYIKDSVTAYNDELFAHQCVMAILEKLPSIKRTLKTDLIAAYAGDPAAPGLSLIIRCYPGFQAVIVYRIAHVLYECGERYYCREMMESVHSYTSIDIHPGASIKGHFFIDHGVGVVIGETAIIGEWCRIYQSVTLGAMHFQEEGGVIKRGTKRHPTVGDYVTIGTGAKVLGNIIVGSHVRIGANCWIDRDVDSNQTVYISEHPTHFVKPCTTKGMKNDTEIIAIIPSSPLANSPSI
Question: Which Km ([2]; Asp114, Asp179, His180, His208, Arg222, His223) does the source give for B2 here?
Answer: 43.5 µM
